Data taken from publication PMC2783259.
Read-outs that look alike come from different tables or passages of the source.

Key:
[1] = target: human FcγRIA (CD64) co-expressed with the common γ chain on CV-1 cells (human) (UniProt P12314); experiment: inhibition of rosette formation
[2] = target: human FcγRIIA (CD32), R131 allotype, on CV-1 cells (human); experiment: inhibition of rosette formation
[3] = target: human FcγRIIA (CD32), H131 allotype, on CV-1 cells (human) (UniProt P12318); experiment: inhibition of rosette formation
[4] = target: human FcγRIIA (CD32), H131 allotype, on CV-1 cells (human) (UniProt P12318); experiment: inhibition of rosette formation; remark: listed apart in the source
[5] = target: human FcγRIA (CD64) co-expressed with the common γ chain on CV-1 cells (human) (UniProt P12314); experiment: inhibition of rosette formation; remark: listed apart in the source
[6] = target: The FcγRIA and FcγRIIA transfectants; experiment: rosette formation

Substance	percent inhibition of rosette formation [1] [%]	percent inhibition of rosette formation [2] [%]	other results
human IgG1 myeloma protein, heat-aggregated (antibody)	> 90	> 90	–
human IgG2 myeloma protein, heat-aggregated (antibody)	–	–	percent inhibition of rosette formation [3]: 60%; percent inhibition of rosette formation [4]: 65%; percent inhibition of rosette formation [5]: 20%
human IgG3 myeloma protein, heat-aggregated (antibody)	> 90	> 90	–
rabbit IgG on opsonized sheep red blood cells (SRBC) (antibody)	–	–	percent rosette formation [6]: 82 to 97%
